Test results: the supplement of paper PMC10724198
± gives the standard deviation of the averaged measurements.
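Also: PSI is a weighted mean of sequencing reads over stability bins, variants kept only with over 10 reads, mCherry proximal and sfGFP distal, peptide attached via GGGS linker.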

The sequences below were run on Saccharomyces cerevisiae (assay: protein stability index of tFT-peptide fusion (C-terminal peptide) (PSI (0-1 scale)); higher = more stable (slower turnover)). Conditions: genetic background: wild type; temperature: 30 C.
With ALLTPPPLPPTV the protein stability index was 0.61 ± 0.061.
ASPPPPRISAWL gave a protein stability index of 0.7159 ± 0.0036.
For CKNRLKMKQESK, the protein stability index was 0.658 ± 0.028.
LPPSPLALVSSS was tested, and the protein stability index was 0.637 ± 0.021.
PHPRPPPLSFAP was tested, and the protein stability index was 0.681 ± 0.035.
In the case of LECLSRGWSIYC, the protein stability index is reported as 0.541 ± 0.05.
SYTAPPLLRSSY gave a protein stability index of 0.679 ± 0.015.
Work on VRGGVSWGMRGG yielded a protein stability index of 0.634 ± 0.089.
In the case of PVEGSTPPPGTT, the protein stability index is reported as 0.614 ± 0.032.
Work on PGALLPALPPPP yielded a protein stability index of 0.71 ± 0.016.
Sequence GVERSLFGRIGV has a protein stability index of 0.735 ± 0.024.
RIVVDIYANRRG gave a protein stability index of 0.689 ± 0.02.
ALSVSLFKDGLF gave a protein stability index of 0.672 ± 0.063.
RLFGFGEQKIEE showed a protein stability index of 0.695 ± 0.021.
SPPESTFAFLRP gave a protein stability index of 0.706 ± 0.037.
HPYVTSHGRPLR was tested, and the protein stability index was 0.677 ± 0.024.
PYRLPRSLLFFP showed a protein stability index of 0.6688 ± 0.0045.
Sequence GWGGCDSVVVSG has a protein stability index of 0.697 ± 0.033.
For WKVFKGLSADVS, the protein stability index was 0.669 ± 0.026.
Sequence SSSPLPPPSPPP has a protein stability index of 0.673 ± 0.032.
With KGEKKNEEEERG the protein stability index was 0.68 ± 0.01.
PVPVLGPESSVH gave a protein stability index of 0.67 ± 0.023.
For RNRAGHVGCYGL, the protein stability index was 0.6989 ± 0.0066.
For WSGNYSNITRYI, the protein stability index was 0.66 ± 0.019.
RVDGDFDYPRVV gave a protein stability index of 0.82 ± 0.11.
With PPPHVPPPPSSL the protein stability index was 0.711 ± 0.023.
PPPGRRRLRGPT showed a protein stability index of 0.705 ± 0.04.
ASSLPIWLVWWL showed a protein stability index of 0.536 ± 0.02.
TFPPLSPSPPLS showed a protein stability index of 0.727 ± 0.13.
With VTPPTPPSRASP the protein stability index was 0.667 ± 0.02.
With PASSSFVCAVSR the protein stability index was 0.783 ± 0.091.
WQDTASNSNTTI showed a protein stability index of 0.719 ± 0.024.
VGEVLCVGGAFY gave a protein stability index of 0.659 ± 0.024.
Sequence HYPLPPLLPPAP has a protein stability index of 0.674 ± 0.014.
With SDGEHIYPESYR the protein stability index was 0.695 ± 0.023.
PPPGAPAPPPSS showed a protein stability index of 0.692 ± 0.12.
Work on TRTQTLAGILGG yielded a protein stability index of 0.677 ± 0.029.
TRCDSSGGSAAP showed a protein stability index of 0.68 ± 0.094.
APSPLHFPPPPT was tested, and the protein stability index was 0.67 ± 0.0048.
RRWCATLGRDRV gave a protein stability index of 0.7029 ± 0.0051.
TTVLRTFGDKQF gave a protein stability index of 0.715 ± 0.00088.
DRRLGKHEYQPY showed a protein stability index of 0.737 ± 0.022.
With GESPSTIRSVYS the protein stability index was 0.609 ± 0.038.
In the case of GGVKGTRFLLRG, the protein stability index is reported as 0.622 ± 0.051.
With LFLAPFRLVLGV the protein stability index was 0.518 ± 0.01.
FCRLSHYLSASP gave a protein stability index of 0.687 ± 0.17.
Work on PHTHPPASLPPV yielded a protein stability index of 0.638 ± 0.033.
For SPRRVAVAGETS, the protein stability index was 0.68 ± 0.093.
Sequence LFENNGIKCHKR has a protein stability index of 0.683 ± 0.013.
With PAPPPVLDTPLP the protein stability index was 0.6018 ± 0.0057.
VCLRVGQGVLWW gave a protein stability index of 0.727 ± 0.021.
ESSKVRNLELLK gave a protein stability index of 0.669 ± 0.017.
Sequence GPSLLLLSVLSE has a protein stability index of 0.6225 ± 0.003.
Work on PKTKKEKQKKKV yielded a protein stability index of 0.704 ± 0.034.
CNRVSLSNVRLF was tested, and the protein stability index was 0.6675 ± 0.00083.
With AGWPWAGRSCWG the protein stability index was 0.728 ± 0.044.
In the case of QRKGNLTKTEPV, the protein stability index is reported as 0.676 ± 0.1.
In the case of YSTFIPYSPCTA, the protein stability index is reported as 0.644 ± 0.013.
GLHSSNQLGALY showed a protein stability index of 0.677 ± 0.036.
WLVPSGTRTGRV was tested, and the protein stability index was 0.678 ± 0.028.
Work on PFFLSFPPSALL yielded a protein stability index of 0.741 ± 0.021.
With GVSRGTGIGEGE the protein stability index was 0.6774 ± 0.0039.
With TSGDFLPSHSFL the protein stability index was 0.702 ± 0.074.
GRSAVVMCFHAG showed a protein stability index of 0.697 ± 0.018.
For GAAIRVNRCGEG, the protein stability index was 0.64136 ± 0.00011.
Sequence PTDFTPREAIGI has a protein stability index of 0.68 ± 0.087.
Work on PLPSPDLPLTHH yielded a protein stability index of 0.679 ± 0.025.
Sequence TSCPPAHLPPPP has a protein stability index of 0.659 ± 0.046.
Work on VLLLGYDRGWDD yielded a protein stability index of 0.718 ± 0.015.
PLSPPPPPPPPL gave a protein stability index of 0.707 ± 0.018.
PFPLPPPPSPTP showed a protein stability index of 0.699 ± 0.03.
Sequence GWAFDVAGQSAR has a protein stability index of 0.683 ± 0.0097.
Work on DYVVHSGTYGPK yielded a protein stability index of 0.687 ± 0.021.
